Molecular target: the molecule itself
Assay: AUC

B1: SYCE3 (purified recombinant protein) (natural protein, Mus musculus, UniProt B5KM66 1-88, looked up)
chain: MADSDPGERSYDNMLKMLSDLNKDLEKLLEEMEKISVQATWMAYDMVVMRTNPTLAESMRRLEDAFLNCKEEMEKNWQELLTETKRKQ
stoichiometry N: 2

Reference: article PMC4231325 (Scientific Reports, 2014)
